Data as given in patent US20220411483A1 (Chugai, published 2022).

T1: human FcγRIIa R type extracellular domain with C-terminal His tag (human, UniProt P12318 34-217)
T1 construct: extracellular domain; also called FcgRIIaR
T1 sequence (looked up): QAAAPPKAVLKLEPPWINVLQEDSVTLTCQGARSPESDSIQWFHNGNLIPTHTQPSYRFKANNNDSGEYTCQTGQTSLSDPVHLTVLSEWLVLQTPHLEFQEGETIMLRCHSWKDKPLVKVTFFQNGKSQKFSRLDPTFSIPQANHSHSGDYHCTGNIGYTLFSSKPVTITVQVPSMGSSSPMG

T2: human FcγRIIb extracellular domain with C-terminal His tag (human, UniProt P31994 43-217)
T2 construct: extracellular domain; also called FcgRIIb
T2 sequence (looked up): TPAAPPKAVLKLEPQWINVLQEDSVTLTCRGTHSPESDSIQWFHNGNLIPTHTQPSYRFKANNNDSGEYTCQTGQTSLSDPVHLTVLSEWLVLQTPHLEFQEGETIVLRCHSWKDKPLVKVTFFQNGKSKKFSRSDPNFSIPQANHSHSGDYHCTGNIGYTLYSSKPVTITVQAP

T3: human FcγRIIa H type extracellular domain with C-terminal His tag (human, UniProt P12318 34-217)
T3 construct: extracellular domain; also called FcgRIIaH
T3 sequence (looked up): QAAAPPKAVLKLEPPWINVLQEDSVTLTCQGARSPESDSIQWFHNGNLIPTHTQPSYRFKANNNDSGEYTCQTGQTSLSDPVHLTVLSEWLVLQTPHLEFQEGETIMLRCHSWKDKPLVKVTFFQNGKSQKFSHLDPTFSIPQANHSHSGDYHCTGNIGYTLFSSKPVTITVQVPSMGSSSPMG


Tests used:
[1] = biological target: T1, human FcγRIIa R type extracellular …; assay: SPR, antibody captured, FcgR analyte
[2] = biological target: T2, human FcγRIIb extracellular domain with …; assay: SPR, antibody captured, FcgR analyte
[3] = biological target: T4, human FcγRIa extracellular domain with C-terminal His tag (human, UniProt P12314 16-292); assay: SPR, antibody captured, FcgR analyte
T4 construct: Whole entry named; also called FcgRIa
T4 sequence (P12314 16-292): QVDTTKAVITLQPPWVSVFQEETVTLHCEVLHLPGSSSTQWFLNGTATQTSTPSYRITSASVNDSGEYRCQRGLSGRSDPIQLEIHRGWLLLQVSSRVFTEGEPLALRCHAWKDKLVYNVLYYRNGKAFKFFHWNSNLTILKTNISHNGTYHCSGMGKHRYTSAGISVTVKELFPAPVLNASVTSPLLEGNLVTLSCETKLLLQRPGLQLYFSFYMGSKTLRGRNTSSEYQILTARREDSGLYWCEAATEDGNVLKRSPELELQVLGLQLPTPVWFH

[4] = biological target: T5, human FcγRIIIa V type extracellular domain with C-terminal His tag (human, UniProt P08637 17-208); assay: SPR, KD of IL6R-G1d/IL6R-L divided by KD of variant
T5 construct: extracellular domain; also called FcgRIIIaV
T5 sequence (P08637 17-208 F176V): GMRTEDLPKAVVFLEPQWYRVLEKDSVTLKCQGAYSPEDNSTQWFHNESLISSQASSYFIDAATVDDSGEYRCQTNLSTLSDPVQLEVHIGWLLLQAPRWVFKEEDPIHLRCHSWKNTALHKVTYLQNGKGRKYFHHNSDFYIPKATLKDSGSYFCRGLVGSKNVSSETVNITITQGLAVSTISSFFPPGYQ

[5] = biological target: T1, human FcγRIIa R type extracellular …; assay: as above
[6] = biological target: T2, human FcγRIIb extracellular domain with …; assay: as above
[7] = biological target: T4, human FcγRIa extracellular domain with …; assay: as above
[8] = biological target: T3, human FcγRIIa H type extracellular …; assay: as above

Binder	Kd [1] [µM]	Kd [2] [µM]	Kd [3] [µM]	Relative FcgRIIIaV-binding Activity [4]	Relative FcgRIIaR-binding Activity [5]	Relative FcgRIIb-binding Activity [6]	Relative FcgRIa-binding Activity [7]	Relative FcgRIIaH-binding Activity [8]
IL6R-P755/IL6R-L (antibody, human IgG1, kappa) heavy: QVQLQESGPGLVKPSETLSLTCAVSGHSISHDHAWSWVRQPPGEGLEWIGFISYSGITNYNPSLQGRVTISRDNSKNTLYLQMNSLRAEDTAVYYCARSLARTTAMDYWGEGTLVTVSSASTKGPSVFPLAPSSKSTSGGTAALGCLVKDYFPEPVTVSWNSGALTSGVHTFPAVLQSSGLYSLSSVVTVPSSSLGTQTYICNVNHKPSNTKVDKKVEPKSCDKTHTCPPCPAPELLGQDSVMLFPPKPKDTLMISRTPEVTCVVVDVSPEDPEVKFNWYVDGVEVHNAKTKPREEQENSTYRVVSVLTVLHQDWLNGKEYKCEVHNKALPHPIEKTISKAKGQPREPQVYTLPPSRDELTKNQVSLTCLVKGFYPSDIAVEWESNGQPENNYKTTPPVLDSDGSFFLYSKLTVDKSRWQQGNVFSCSVMHEALHNHYTQKSLSLSP light: not shown	17	4.1	0.085	0.005	0.06	0.5	0.004	0.005
IL6R-P756/IL6R-L (antibody, human IgG1, kappa) heavy: QVQLQESGPGLVKPSETLSLTCAVSGHSISHDHAWSWVRQPPGEGLEWIGFISYSGITNYNPSLQGRVTISRDNSKNTLYLQMNSLRAEDTAVYYCARSLARTTAMDYWGEGTLVTVSSASTKGPSVFPLAPSSKSTSGGTAALGCLVKDYFPEPVTVSWNSGALTSGVHTFPAVLQSSGLYSLSSVVTVPSSSLGTQTYICNVNHKPSNTKVDKKVEPKSCDKTHTCPPCPAPDLLGGDSVFLFPPKPKDTLMISRTPEVTCVVIDVAEEDGEVKFNWYVDGVEVHNAKTKPREEQYNSTYRVVSVLTVLHQDWLNGKEYKCKVSNKGLPSSIEKTISKAKGQPREPQVYTLPPSRDELTKNQVSLTCLVKGFYPSDIAVEWESNGQPENNYKTTPPVLDSDGSFFLYSKLTVDKSRWQQGNVFSCSVMHEALHNHYTQKSLSLSP light: not shown	1.7	0.052	0.0011	0.007	0.65	40.4	0.291	0.03
IL6R-P752/IL6R-L (antibody, human IgG1, kappa) heavy: QVQLQESGPGLVKPSETLSLTCAVSGHSISHDHAWSWVRQPPGEGLEWIGFISYSGITNYNPSLQGRVTISRDNSKNTLYLQMNSLRAEDTAVYYCARSLARTTAMDYWGEGTLVTVSSASTKGPSVFPLAPSSKSTSGGTAALGCLVKDYFPEPVTVSWNSGALTSGVHTFPAVLQSSGLYSLSSVVTVPSSSLGTQTYICNVNHKPSNTKVDKKVEPKSCDKTHTCPPCPAPELFGQDSVMLFPPKPKDTLMISRTPEVTCVVVDVSPEDPEVKFNWYVDGVEVHNAKTKPREEQENSTYRVVSVLTVLHQDWLNGKEYKCAVHNKALPAPIEKTISKAKGQPREPQVYTLPPSRDELTKNQVSLTCLVKGFYPSDIAVEWESNGQPENNYKTTPPVLDSDGSFFLYSKLTVDKSRWQQGNVFSCSVMHEALHNHYTQKSLSLSP light: not shown	41	4.2	0.15	0.006	0.03	0.5	0.002	0.013
IL6R-P753/IL6R-L (antibody, human IgG1, kappa) heavy: QVQLQESGPGLVKPSETLSLTCAVSGHSISHDHAWSWVRQPPGEGLEWIGFISYSGITNYNPSLQGRVTISRDNSKNTLYLQMNSLRAEDTAVYYCARSLARTTAMDYWGEGTLVTVSSASTKGPSVFPLAPSSKSTSGGTAALGCLVKDYFPEPVTVSWNSGALTSGVHTFPAVLQSSGLYSLSSVVTVPSSSLGTQTYICNVNHKPSNTKVDKKVEPKSCDKTHTCPPCPAPELFGQDSVMLFPPKPKDTLMISRTPEVTCVVVDVSPEDPEVKFNWYVDGVEVHNAKTKPREEQENSTYRVVSVLTVLHQDWLNGKEYKCEVHNKALPAPIEKTISKAKGQPREPQVYTLPPSRDELTKNQVSLTCLVKGFYPSDIAVEWESNGQPENNYKTTPPVLDSDGSFFLYSKLTVDKSRWQQGNVFSCSVMHEALHNHYTQKSLSLSP light: not shown	18	2.8	0.11	0.007	0.06	0.8	0.003	0.014

The remaining lines, values ahead:

Kd [1] [µM]	Kd [2] [µM]	Kd [3] [µM]	Relative FcgRIIIaV-binding Activity [4]	Relative FcgRIIaR-binding Activity [5]	Relative FcgRIIb-binding Activity [6]	Relative FcgRIa-binding Activity [7]	Relative FcgRIIaH-binding Activity [8]	Binder
49	4	0.23	0.006	0.02	0.5	0.001	0.013	IL6R-P750/IL6R-L (antibody, human IgG1, kappa) heavy: QVQLQESGPGLVKPSETLSLTCAVSGHSISHDHAWSWVRQPPGEGLEWIGFISYSGITNYNPSLQGRVTISRDNSKNTLYLQMNSLRAEDTAVYYCARSLARTTAMDYWGEGTLVTVSSASTKGPSVFPLAPSSKSTSGGTAALGCLVKDYFPEPVTVSWNSGALTSGVHTFPAVLQSSGLYSLSSVVTVPSSSLGTQTYICNVNHKPSNTKVDKKVEPKSCDKTHTCPPCPAPELFGQDSVMLFPPKPKDTLMISRTPEVTCVVVDVSPEDPEVKFNWYVDGVEVHNAKTKPREEQENSTYRVVSVLTVLHQDWLNGKEYKCAVSNKALPAPIEKTISKAKGQPREPQVYTLPPSRDELTKNQVSLTCLVKGFYPSDIAVEWESNGQPENNYKTTPPVLDSDGSFFLYSKLTVDKSRWQQGNVFSCSVMHEALHNHYTQKSLSLSP light: not shown
10	7.7	0.19	0.004	0.11	0.3	0.002	0.003	IL6R-P754/IL6R-L (antibody, human IgG1, kappa) heavy: QVQLQESGPGLVKPSETLSLTCAVSGHSISHDHAWSWVRQPPGEGLEWIGFISYSGITNYNPSLQGRVTISRDNSKNTLYLQMNSLRAEDTAVYYCARSLARTTAMDYWGEGTLVTVSSASTKGPSVFPLAPSSKSTSGGTAALGCLVKDYFPEPVTVSWNSGALTSGVHTFPAVLQSSGLYSLSSVVTVPSSSLGTQTYICNVNHKPSNTKVDKKVEPKSCDKTHTCPPCPAPELLGQDSVMLFPPKPKDTLMISRTPEVTCVVVDVSPEDPEVKFNWYVDGVEVHNAKTKPREEQENSTYRVVSVLTVLHQDWLNGKEYKCAVHNKALPHPIEKTISKAKGQPREPQVYTLPPSRDELTKNQVSLTCLVKGFYPSDIAVEWESNGQPENNYKTTPPVLDSDGSFFLYSKLTVDKSRWQQGNVFSCSVMHEALHNHYTQKSLSLSP light: not shown
19	3.5	0.24	0.007	0.06	0.6	0.001	0.013	IL6R-P751/IL6R-L (antibody, human IgG1, kappa) heavy: QVQLQESGPGLVKPSETLSLTCAVSGHSISHDHAWSWVRQPPGEGLEWIGFISYSGITNYNPSLQGRVTISRDNSKNTLYLQMNSLRAEDTAVYYCARSLARTTAMDYWGEGTLVTVSSASTKGPSVFPLAPSSKSTSGGTAALGCLVKDYFPEPVTVSWNSGALTSGVHTFPAVLQSSGLYSLSSVVTVPSSSLGTQTYICNVNHKPSNTKVDKKVEPKSCDKTHTCPPCPAPELFGQDSVMLFPPKPKDTLMISRTPEVTCVVVDVSPEDPEVKFNWYVDGVEVHNAKTKPREEQENSTYRVVSVLTVLHQDWLNGKEYKCEVSNKALPAPIEKTISKAKGQPREPQVYTLPPSRDELTKNQVSLTCLVKGFYPSDIAVEWESNGQPENNYKTTPPVLDSDGSFFLYSKLTVDKSRWQQGNVFSCSVMHEALHNHYTQKSLSLSP light: not shown
